Test results as given in the supplement of paper PMC9170038.

How the values were obtained:
[1] = tested on: K4 kissing-loop RNA reporter; experiment: apparent KD of K4 kissing-loop reporter; higher = weaker reporter binding; details: Eterna round: R107;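 also: bound reporter read as fluorescence of individual clusters on recovered sequencing chips by microscopy, with normalized cluster intensities fitted with a binding model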
Procedure: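 RNA-MaP round R107: designed RNA switches with theophylline, tryptophan, arginine or FMN aptamers are transcribed on-chip within common flanks. They are titrated with a labelled K4 kissing-loop RNA reporter in RNA-MaP buffer (100 mM Tris pH 7.5, 80 mM KCl, 4 mM MgCl2), without ligand or with the indicated ligand. Median apparent KD per design.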

MS2 coat protein = experiment: apparent KD of MS2 coat protein; designed switch direction (-1 OFF switch, 1 ON switch): -1; higher = weaker reporter binding
Outline: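 Transcription of designed RNA switches on Illumina chips was done by stalled E. coli RNA polymerase. SNAP-549-labelled MS2 coat protein was then titrated in doubling steps from 0.7 or 1.5 nM to 3 µM, with steps of 0.8–1.5 h at the lowest and 10–20 min at the highest concentration. The per-design median over clusters of curve-fitted normalised fluorescence is reported as apparent KD.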

[2] = input ligand: theophylline 20 uM
[3] = input ligand: tryptophan 2.4 mM
[4] = Eterna round: R95, input ligand: microRNA oligo, concentration not stated
[5] = Eterna round: R95, input ligand: FMN 200 uM
[6] = Eterna round: R95, input ligand: none
[7] = input ligand: microRNA oligo, concentration not stated

Sequence | apparent KD of K4 kissing-loop reporter ([1]; input ligand: FMN 200 uM) [nM] | apparent KD of K4 kissing-loop reporter ([1]; input ligand: arginine 13.2 mM) [nM] | apparent KD of K4 kissing-loop reporter ([1]; input ligand: none) [nM] | apparent KD of K4 kissing-loop reporter [1, 2] [nM] | apparent KD of K4 kissing-loop reporter [1, 3] [nM] | apparent KD of MS2 coat protein (MS2 coat protein; [4]) [nM] | other results
AACUGCUAAGAGGUUAAGCACGUCAUUAUGAAGGAUAUAGAAUUCACUAGAAGGUCAUGUGCCCUGAGUGAUGUUCAGAUAGGCG [theeternabot_sameState_KL_FMN_A_25] | 294 | 229 | 236 | 421 | 336 | – | –
AACUGUCAAGGCCAACAUUACUGAGGUGAUACCAGCAUCGAAAGAUGCCCUUGGCAGCACCAACUUGCAGUGAUGUUGCAAGUAA [BrourdMod 13 - Jieux - Exclusion - Theophylline A] | 231 | 203 | 234 | 307 | 225 | – | –
AAGAAUAAUCUUGCAGUGAUGUUGCAAGAUACCAGCAUCGAAAGAUGCCCUUGGCAGCUUGAAAACAUCACUAUCAAGCUGCAUA [Design2] | 620 | 452 | 664 | 552 | 558 | – | –
AAGCAGUCACGCGAAGCCAUCGAAGAUGGACGAGGACCGGUACGGCCGCCACUCGGAGUGAUGUUCCGAAGACUGCAAAAUAAAA | 515 | 499 | 420 | 599 | 363 | – | –
AAGCAGUCACUCGAAUCCAUCGAAGAUGGGCGAGGACCGGUACGGCCGCCACUCGGAGUGAUGUUCCGCAGACUGCAAAAUAAAA | 636 | 402 | 863 | 580 | 478 | – | –
AAGCAGUCCCUUGUUGUCAUCGAAGAUGAACGAGGACCGGUACGGCCGCCACUCGGAGUGAUGUUCCGAAGGCUGCAAAAUAAAA [MatMod 20 - Jieux - Exclusion - Tryptophan A] | 109 | 112 | 116 | 115 | 205 | – | –
AAGCGUAAAAUGGCGGACAUACUGCUCCCACGAGGACCGGUACGGCCGCCACUCGAAUGCGGCAGUGAUGUUGCCGCCUUAGCGU [KL-XTryp-A19] | 84.6 | 77.5 | 79.1 | 75.2 | 76.1 | – | –
AAGCGUGUGGCGGCCGCCACUAGUCUCCAGUGAUGUUGGAGAGAUCACGUAAGUGAUCUCCGACAUAGGACCGGGCCAUAUGGAA [Same State - Tryptophan B (Freestyle 23)] | 69.1 | 125 | 186 | 443 | 214 | – | –
AAGGGCGGAACUUCCUCGCCGGAUAGAGAUACCAGCCCAGCAAAGGGCCCUUGGCAGCUCACUGACCUCAGUGAUGUUGAGGUUC [Riesrevere] | 345 | 241 | 301 | 216 | 296 | – | –
UUUUAACAUGAGGAUCACCCAUGUGAGGAUAUCGAAAUUUAUAUUAAUAUUUAUAAAACGAGAAGGCACAUUUU [JMF 51] (puzzle: Exclusion 1) | – | – | – | – | – | 78.6 | –
UUUUAACAUGAGGAUCACCCAUGUGAGGAUAUCGAAAUUUAUAUUUAUAUUAAUUAUACGAGAAGGCACAUUUU [JMF 86] (puzzle: Exclusion 1) | – | – | – | – | – | 65.5 | –
UUUUAACAUGAGGAUCACCCAUGUGAGGAUAUCGAAAUUUAUAUUUAUAUUAAUUUAUCGAGAAGGCACAUUUU [JMF 88] (puzzle: Exclusion 1) | – | – | – | – | – | 166 | –
UUUUACCAAGGAUAUACAUUUUUUUUAUUAUUUUCAUUAUAACAUGAGGAUCACCCAUGUAGAAGGUGGAUUUU [My Design] (puzzle: Exclusion 2) | – | – | – | – | – | 59.6 | –
UUUUACGAAGGAUAUACAUUUUUUUUAUUAUUUUCAUUAUUACAUGAGGAUCACCCAUGUAGAAGGUCGAUUUU [My Design] (puzzle: Exclusion 2) | – | – | – | – | – | 27.7 | –
UUUUAGAGAGGAUAUAUAAUGUGAAACAUGAGGAUCACCCAUGUAAUAUUAUGGAUGUAAAUAGAAGGCUCAAUUA [Mat - Exclusion 5 - JL mod - D13] (puzzle: Exclusion 5) | – | – | – | – | – | 30.4 | apparent KD of MS2 coat protein (MS2 coat protein; [5]): 28.5 nM; apparent KD of MS2 coat protein (MS2 coat protein; [6]): 26.3 nM
UUUUAGUCAGGAUAUACAUUUUUUUAUUUAUUUAUAAUAUUACAUGAGGAUCACCCAUGUAGAAGGGACAUUUU [My Design] (puzzle: Exclusion 2) | – | – | – | – | – | 29.6 | –
UUUUCAUAUGAAGGAUAUACUUAACAUGAGGAUCACCCAUGUGGUGUUGUGAGUGAGUGAGUUUAGUAGAAGGUCAAGUAUUUU [JMF's solution 48] (Eterna round: R96, puzzle: Exclusion NG 2) | – | – | – | – | – | – | apparent KD of MS2 coat protein (MS2 coat protein; input ligand: FMN 200 uM): 805 nM; apparent KD of MS2 coat protein (MS2 coat protein; [7]): 304 nM; apparent KD of MS2 coat protein (MS2 coat protein; input ligand: none): 304 nM
UUUUCUUUUGUGAGGAUAUACUUCUUUUUUUUUUUGUAGAAGGCACAUGAGGAUCACCCAUGUUUUCUUUUCUG [JR_BME4_Sub027] (puzzle: Brourd's mod of Exclusion 4) | – | – | – | – | – | 22.1 | –
UUUUGGCAUGUAGGAUAUGGGUCCGAUUAGGAUUUAGAAGGACAUGAGGAUCACCCAUGUGCAUUUAAUUGGUCUUUUUUUUUU [EXclNG1-LROPPY15] (Eterna round: R96, puzzle: Exclusion NG 1) | – | – | – | – | – | – | apparent KD of MS2 coat protein (MS2 coat protein; [7]): 80 nM
UUUUUAUAUGAAGGAUAUACUUAACAUGAGGAUCACCCAUGUGGUGUUGUGAGUGAGUGAGUUUAGUAGAAGGUCAAUUAUUGU [JMF's solution 16] (Eterna round: R96, puzzle: Exclusion NG 2) | – | – | – | – | – | – | apparent KD of MS2 coat protein (MS2 coat protein; input ligand: FMN 200 uM): 2260 nM; apparent KD of MS2 coat protein (MS2 coat protein; [7]): 155 nM; apparent KD of MS2 coat protein (MS2 coat protein; input ligand: none): 394 nM
UUUUUAUUUUUUUAUUUUGACAUGAGGAUCACCCAUGUAACGAGCAGAUCUUCAUGCAAGCUUUUUGCUCGUCUUAU [Sensor v3 - Turn-off variant 1 - 41] (puzzle: Sensor v3, turn-off variant 1) | – | – | – | – | – | 15.5 | apparent KD of MS2 coat protein (MS2 coat protein; [5]): 69.1 nM; apparent KD of MS2 coat protein (MS2 coat protein; [6]): 95.6 nM
UUUUUCUGUGUGAGGAUAUACUUUGUUUGGUCGUUGUAGAAGGCACAUGAGGAUCACCCAUGUAGUUUGUUGUG [JR_BME4_Sub013] (puzzle: Brourd's mod of Exclusion 4) | – | – | – | – | – | 23 | –
UUUUUGUGAGGAUAUCAGUAGUAAAAUAAAUAAAUUACUACUGAGAAGGCACAUGAGGAUCACCCAUGUUCCUU [Mat - Exclusion 4 - Mod of Salish - D66] (puzzle: Exclusion 4) | – | – | – | – | – | 13.7 | –
UUUUUUGUAGUGAGGAUAUCGUUGAGGAUGUGGAUCGAGAAGGCACAUGAGGAUCACCCAUGUUAGAUGUGGUU [JR_BMOE4_Sub083] (Eterna round: R96, puzzle: Brourd's mod of Exclusion 4) | – | – | – | – | – | – | apparent KD of MS2 coat protein (MS2 coat protein; input ligand: FMN 200 uM): 363 nM; apparent KD of MS2 coat protein (MS2 coat protein; [7]): 134 nM; apparent KD of MS2 coat protein (MS2 coat protein; input ligand: none): 166 nM
UUUUUUGUAGUGAGGAUAUCGUUGAGGAUGUGGAUCGAGAAGGCACAUGAGGAUCACCCAUGUUAGAUGUGGUU [JR_BMOE4_Sub083] (puzzle: Brourd's mod of Exclusion 4) | – | – | – | – | – | 173 | –
